Data published in paper doi:10.1101/2020.02.01.930206 (bioRxiv, 2020).
Values belong to the binder of their own block, whether it stands above or below them.

Legend:
crystal structure = molecular target: the molecule itself; experiment: crystal structure
full-length mouse DNA2 = molecular target: T1, full-length mouse DNA2 (mouse, UniProt Q6ZQJ5 1-1062); experiment: cryo-EM structure
T1 sequence: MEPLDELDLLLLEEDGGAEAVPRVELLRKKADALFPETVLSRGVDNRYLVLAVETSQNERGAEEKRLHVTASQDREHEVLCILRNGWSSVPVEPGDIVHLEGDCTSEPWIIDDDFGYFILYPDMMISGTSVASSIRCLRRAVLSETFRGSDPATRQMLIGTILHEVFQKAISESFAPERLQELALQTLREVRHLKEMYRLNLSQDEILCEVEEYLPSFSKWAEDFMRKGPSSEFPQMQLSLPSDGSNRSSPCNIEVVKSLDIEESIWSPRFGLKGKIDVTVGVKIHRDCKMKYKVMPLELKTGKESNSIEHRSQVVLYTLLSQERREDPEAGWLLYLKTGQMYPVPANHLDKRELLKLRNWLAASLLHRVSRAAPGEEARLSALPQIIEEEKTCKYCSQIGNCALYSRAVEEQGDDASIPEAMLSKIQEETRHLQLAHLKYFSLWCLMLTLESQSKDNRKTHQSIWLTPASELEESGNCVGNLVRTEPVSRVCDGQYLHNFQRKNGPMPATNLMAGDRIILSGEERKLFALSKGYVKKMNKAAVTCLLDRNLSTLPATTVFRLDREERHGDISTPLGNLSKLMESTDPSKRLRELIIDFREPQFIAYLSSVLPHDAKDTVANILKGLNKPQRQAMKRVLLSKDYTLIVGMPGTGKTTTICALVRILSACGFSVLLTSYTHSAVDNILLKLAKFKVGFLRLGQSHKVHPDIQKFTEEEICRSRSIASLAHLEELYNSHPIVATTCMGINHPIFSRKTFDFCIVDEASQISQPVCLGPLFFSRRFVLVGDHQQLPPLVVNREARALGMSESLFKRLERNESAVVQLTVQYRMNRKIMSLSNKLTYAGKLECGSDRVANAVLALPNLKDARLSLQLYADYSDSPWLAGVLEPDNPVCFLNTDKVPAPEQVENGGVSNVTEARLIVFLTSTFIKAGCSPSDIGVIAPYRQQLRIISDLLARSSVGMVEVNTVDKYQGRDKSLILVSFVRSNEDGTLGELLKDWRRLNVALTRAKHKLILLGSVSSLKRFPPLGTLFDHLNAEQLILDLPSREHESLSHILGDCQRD

[1] = molecular target: T2, human primase (PriL-PriS heterodimer) (human, UniProt P49643;P49642); experiment: ITC
T2 sequence 1: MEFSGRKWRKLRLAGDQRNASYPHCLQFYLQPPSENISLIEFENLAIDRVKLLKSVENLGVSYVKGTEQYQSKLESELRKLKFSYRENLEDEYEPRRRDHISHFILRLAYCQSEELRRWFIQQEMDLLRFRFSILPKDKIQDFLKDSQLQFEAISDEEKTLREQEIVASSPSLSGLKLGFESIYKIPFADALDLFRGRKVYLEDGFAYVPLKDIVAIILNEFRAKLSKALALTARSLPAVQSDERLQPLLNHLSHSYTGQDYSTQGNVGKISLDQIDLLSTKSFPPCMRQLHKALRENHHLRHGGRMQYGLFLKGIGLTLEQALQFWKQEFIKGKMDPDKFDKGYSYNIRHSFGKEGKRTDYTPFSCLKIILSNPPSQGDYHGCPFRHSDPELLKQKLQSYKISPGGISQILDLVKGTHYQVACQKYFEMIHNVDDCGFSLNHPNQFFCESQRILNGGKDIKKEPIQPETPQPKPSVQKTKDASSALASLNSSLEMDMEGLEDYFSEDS
T2 sequence 2: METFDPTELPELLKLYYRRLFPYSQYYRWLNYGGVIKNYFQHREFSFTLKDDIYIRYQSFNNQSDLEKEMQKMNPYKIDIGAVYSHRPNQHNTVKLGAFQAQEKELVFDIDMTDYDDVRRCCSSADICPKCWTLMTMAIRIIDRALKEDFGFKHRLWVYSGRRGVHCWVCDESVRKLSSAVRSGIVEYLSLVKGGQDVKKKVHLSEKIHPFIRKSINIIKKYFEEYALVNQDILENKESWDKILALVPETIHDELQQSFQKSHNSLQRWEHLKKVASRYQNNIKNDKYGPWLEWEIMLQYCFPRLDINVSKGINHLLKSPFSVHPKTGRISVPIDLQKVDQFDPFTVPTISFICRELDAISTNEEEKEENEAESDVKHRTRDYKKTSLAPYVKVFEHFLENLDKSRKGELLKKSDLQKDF

B1: full-length mouse MMS19 (natural protein)
chain: MAAATGLEEAVAPMGALCGLVQDFVMGQQEGPADQVAADVKSGGYTVLQVVEALGSSLENAEPRTRARGAQLLSQVLLQCHSLLSEKEVVHLILFYENRLKDHHLVVPSVLQGLRALSMSVALPPGLAVSVLKAIFQEVHVQSLLQVDRHTVFSIITNFMRSREEELKGLGADFTFGFIQVMDGEKDPRNLLLAFRIVHDLISKDYSLGPFVEELFEVTSCYFPIDFTPPPNDPYGIQREDLILSLRAVLASTPRFAEFLLPLLIEKVDSEILSAKLDSLQTLNACCAVYGQKELKDFLPSLWASIRREVFQTASERVEAEGLAALHSLTACLSCSVLRADAEDLLGSFLSNILQDCRHHLCEPDMKLVWPSAKLLQAAAGASARACEHLTSNVLPLLLEQFHKHSQSNQRRTILEMILGFLKLQQKWSYEDRDERPLSSFKDQLCSLVFMALTDPSTQLQLVGIRTLTVLGAQPGLLSAEDLELAVGHLYRLTFLEEDSQSCRVAALEASGTLATLYPGAFSRHLLPKLAEELHKGESDVARADGPTKCSRHFRCLQALSAVSTHPSIVKETLPLLLQHLCQANKGNMVTESSEVVAVCQSLQQVAEKCQQDPESYWYFHKTAVPCLFALAVQASMPEKESSVLRKVLLEDEVLAALASVIGTATTHLSPELAAQSVTCIVPLFLDGNTSFLPENSFPDQFQPFQDGSSGQRRLVALLTAFVCSLPRNVEIPQLNRLMRELLKQSCGHSCPFSSTAATKCFAGLLNKQPPGQQLEEFLQLAVGTVEAGLASESSRDQAFTLLLWVTKALVLRYHPLSACLTTRLMGLLSDPELGCAAADGFSLLMSDCTDVLTRAGHADVRIMFRQRFFTDNVPALVQGFHAAPQDVKPNYLKGLSHVLNRLPKPVLLPELPTLLSLLLEALSCPDSVVQLSTLSCLQPLLLEAPQIMSLHVDTLVTKFLNLSSSYSMAVRIAALQCMHALTRLPTSVLLPYKSQVIRALAKPLDDKKRLVRKEAVSARGEWFLLGSPGS
binding result (crystal structure): binds

B3: human CIAO1-CIAO2B core complex (complex)
chain 1: not shown
chain 2: MVGGGGVGGGLLENANPLIYQRSGERPVTAGEEDEQVPDSIDAREIFDLIRSINDPEHPLTLEELNVVEQVRVQVSDPESTVAVAFTPTIPHCSMATLIGLSIKVKLLRSLPQRFKMDVHITPGTHASEHAVNKQLADKERVAAALENTHLLEVVNQCLSARS
Kd [1]: 5.4 µM

Continued, values first:

binding result (full-length mouse DNA2): binds
B2: human MMS19 (subunit of the purified CTC) (natural protein)
chain: MAAAAAVEAAAPMGALWGLVHDFVVGQQEGPADQVAADVKSGNYTVLQVVEALGSSLENPEPRTRARAIQLLSQVLLHCHTLLLEKEVVHLILFYENRLKDHHLVIPSVLQGLKALSLCVALPPGLAVSVLKAIFQEVHVQSLPQVDRHTVYNIITNFMRTREEELKSLGADFTFGFIQVMDGEKDPRNLLVAFRIVHDLISRDYSLGPFVEELFEVTSCYFPIDFTPPPNDPHGIQREDLILSLRAVLASTPRFAEFLLPLLIEKVDSEVLSAKLDSLQTLNACCAVYGQKELKDFLPSLWASIRREVFQTASERVEAEGLAALHSLTACLSRSVLRADAEDLLDSFLSNILQDCRHHLCEPDMKLVWPSAKLLQAAAGASARACDSVTSNVLPLLLEQFHKHSQSSQRRTILEMLLGFLKLQQKWSYEDKDQRPLNGFKDQLCSLVFMALTDPSTQLQLVGIRTLTVLGAQPDLLSYEDLELAVGHLYRLSFLKEDSQSCRVAALEASGTLAALYPVAFSSHLVPKLAEELRVGESNLTNGDEPTQCSRHLCCLQALSAVSTHPSIVKETLPLLLQHLWQVNRGNMVAQSSDVIAVCQSLRQMAEKCQQDPESCWYFHQTAIPCLLALAVQASMPEKEPSVLRKVLLEDEVLAAMVSVIGTATTHLSPELAAQSVTHIVPLFLDGNVSFLPENSFPSRFQPFQDGSSGQRRLIALLMAFVCSLPRNVEIPQLNQLMRELLELSCCHSCPFSSTAAAKCFAGLLNKHPAGQQLDEFLQLAVDKVEAGLGSGPCRSQAFTLLLWVTKALVLRYHPLSSCLTARLMGLLSDPELGPAAADGFSLLMSDCTDVLTRAGHAEVRIMFRQRFFTDNVPALVQGFHAAPQDVKPNYLKGLSHVLNRLPKPVLLPELPTLLSLLLEALSCPDCVVQLSTLSCLQPLLLEAPQVMSLHVDTLVTKFLNLSSSPSMAVRIAALQCMHALTRLPTPVLLPYKPQVIRALAKPLDDKKRLVRKEAVSARGEWFLLGSPGS

Kd [1]: 0.832 µM
B4: human MMS19^710-1030-CIAO1-CIAO2B complex (complex)
chain 1: GQRRLIALLMAFVCSLPRNVEIPQLNQLMRELLELSCCHSCPFSSTAAAKCFAGLLNKHPAGQQLDEFLQLAVDKVEAGLGSGPCRSQAFTLLLWVTKALVLRYHPLSSCLTARLMGLLSDPELGPAAADGFSLLMSDCTDVLTRAGHAEVRIMFRQRFFTDNVPALVQGFHAAPQDVKPNYLKGLSHVLNRLPKPVLLPELPTLLSLLLEALSCPDCVVQLSTLSCLQPLLLEAPQVMSLHVDTLVTKFLNLSSSPSMAVRIAALQCMHALTRLPTPVLLPYKPQVIRALAKPLDDKKRLVRKEAVSARGEWFLLGSPGS
chain 2: not shown
chain 3: B3 chain 2
